Results published in patent US20250179210A1 (Merck KGaA, published 2025).

Tests used:
[1] = biological target: T1, huCEACAM3-His6 (C449 Novoprotein) (human, UniProt P40198 35-155, limits assumed); test: ELISA, protein coated at 12 nM
T1 construct: also called human CEACAM3
T1 sequence (looked up): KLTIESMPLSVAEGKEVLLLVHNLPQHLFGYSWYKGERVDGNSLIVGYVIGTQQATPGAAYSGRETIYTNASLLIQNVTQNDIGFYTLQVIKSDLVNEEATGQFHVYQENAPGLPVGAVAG

[2] = biological target: T2, huCEACAM8-His6 (C583 Novoprotein) (human, UniProt P31997 35-320, limits assumed); test: ELISA, protein coated at 12 nM
T2 construct: also called human CEACAM8
T2 sequence (looked up): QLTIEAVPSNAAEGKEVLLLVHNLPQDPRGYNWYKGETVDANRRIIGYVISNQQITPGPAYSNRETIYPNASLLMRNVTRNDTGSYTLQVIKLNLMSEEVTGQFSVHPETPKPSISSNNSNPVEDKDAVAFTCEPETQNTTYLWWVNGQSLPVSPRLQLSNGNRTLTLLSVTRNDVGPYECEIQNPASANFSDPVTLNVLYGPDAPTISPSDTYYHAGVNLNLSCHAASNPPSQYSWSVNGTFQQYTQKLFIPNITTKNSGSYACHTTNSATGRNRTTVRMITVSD

[3] = biological target: T3, huCEACAM7-His6 (C926 Novoprotein) (human, UniProt Q14002 36-242, limits assumed); test: ELISA, protein coated at 12 nM
T3 construct: also called human CEACAM7
T3 sequence (looked up): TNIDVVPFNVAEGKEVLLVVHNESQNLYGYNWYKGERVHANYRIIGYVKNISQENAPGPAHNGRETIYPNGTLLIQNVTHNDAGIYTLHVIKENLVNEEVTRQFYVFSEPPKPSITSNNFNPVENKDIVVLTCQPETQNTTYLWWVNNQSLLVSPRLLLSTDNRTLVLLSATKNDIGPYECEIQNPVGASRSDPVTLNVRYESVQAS

[4] = biological target: T4, huCEACAM6-His6 (3934-CM R&D Systems and recombinant protein obtained from Syngene) (human, UniProt P40199 35-320); test: ELISA, protein coated at 12 nM
T4 construct: Two sources of the protein are named; the result is told once; also called human CEACAM6
T4 sequence (looked up): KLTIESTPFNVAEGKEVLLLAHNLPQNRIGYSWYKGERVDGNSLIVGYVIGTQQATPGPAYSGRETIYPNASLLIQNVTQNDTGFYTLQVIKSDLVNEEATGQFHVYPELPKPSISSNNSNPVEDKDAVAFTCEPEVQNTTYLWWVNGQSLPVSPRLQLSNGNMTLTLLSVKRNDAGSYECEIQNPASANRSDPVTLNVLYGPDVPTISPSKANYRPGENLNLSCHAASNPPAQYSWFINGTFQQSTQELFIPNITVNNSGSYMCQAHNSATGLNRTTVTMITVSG

[5] = biological target: T5, huCEACAM1-His6 (2244-CM R&D Systems) (human, UniProt P13688 35-428); test: ELISA, protein coated at 12 nM
T5 construct: also called human CEACAM1
T5 sequence (looked up): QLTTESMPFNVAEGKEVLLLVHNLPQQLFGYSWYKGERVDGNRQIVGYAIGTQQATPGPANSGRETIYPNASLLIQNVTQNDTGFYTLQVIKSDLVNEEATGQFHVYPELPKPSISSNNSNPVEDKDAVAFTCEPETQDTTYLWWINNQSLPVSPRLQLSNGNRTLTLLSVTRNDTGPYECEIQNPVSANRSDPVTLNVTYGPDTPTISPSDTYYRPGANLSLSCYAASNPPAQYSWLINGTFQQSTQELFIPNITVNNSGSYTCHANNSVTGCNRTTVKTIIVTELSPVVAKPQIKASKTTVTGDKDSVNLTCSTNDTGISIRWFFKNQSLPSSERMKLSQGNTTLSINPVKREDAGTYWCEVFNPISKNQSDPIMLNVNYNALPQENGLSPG

[6] = biological target: T6, huPSG1-His6 (CC66 Novoprotein) (human, UniProt P11464 35-419, limits assumed); test: ELISA, protein coated at 12 nM
T6 construct: also called human PSG1
T6 sequence (P11464 35-419 limits assumed): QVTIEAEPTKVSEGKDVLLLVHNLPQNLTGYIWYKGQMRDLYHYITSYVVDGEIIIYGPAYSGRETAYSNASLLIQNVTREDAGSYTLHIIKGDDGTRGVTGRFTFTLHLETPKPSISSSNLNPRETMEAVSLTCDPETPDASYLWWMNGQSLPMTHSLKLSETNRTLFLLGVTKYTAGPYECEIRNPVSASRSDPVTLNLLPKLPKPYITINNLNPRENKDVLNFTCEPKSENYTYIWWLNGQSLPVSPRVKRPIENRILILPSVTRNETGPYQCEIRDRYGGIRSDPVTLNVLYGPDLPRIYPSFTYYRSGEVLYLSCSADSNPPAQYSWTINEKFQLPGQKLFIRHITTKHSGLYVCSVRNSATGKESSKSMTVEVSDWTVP

[7] = biological target: T7, BSA (bovine serum albumin) (bovine, UniProt P02769 25-607); test: ELISA
T7 construct: Negative control; also called unrelated protein
T7 sequence (P02769 25-607 limits assumed): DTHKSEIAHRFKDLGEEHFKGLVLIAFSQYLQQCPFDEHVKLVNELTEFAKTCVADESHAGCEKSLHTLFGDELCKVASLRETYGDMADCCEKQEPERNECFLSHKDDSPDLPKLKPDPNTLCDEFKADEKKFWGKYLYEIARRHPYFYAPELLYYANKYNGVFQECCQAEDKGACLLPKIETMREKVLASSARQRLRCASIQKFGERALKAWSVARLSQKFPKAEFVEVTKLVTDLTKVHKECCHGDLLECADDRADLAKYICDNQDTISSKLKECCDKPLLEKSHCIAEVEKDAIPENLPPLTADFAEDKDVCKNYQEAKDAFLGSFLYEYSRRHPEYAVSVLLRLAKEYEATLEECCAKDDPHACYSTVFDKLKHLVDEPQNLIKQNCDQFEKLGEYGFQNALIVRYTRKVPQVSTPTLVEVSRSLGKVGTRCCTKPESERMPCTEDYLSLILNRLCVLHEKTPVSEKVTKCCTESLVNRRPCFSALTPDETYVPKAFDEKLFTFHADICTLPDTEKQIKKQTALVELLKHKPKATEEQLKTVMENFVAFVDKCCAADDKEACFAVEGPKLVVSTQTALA

[8] = biological target: T8, human_CEACAM5_ECD-his-biotin (R&D Systems) (human, UniProt P06731 35-685, biotinylated using routine methods (sites not given)); test: BLI (Octet Red), biotinylated antigen captured on streptavidin biosensor, Fab as analyte 6.25-200 nM
T8 construct: Bought protein; not shown: His tag and any linker
T8 sequence: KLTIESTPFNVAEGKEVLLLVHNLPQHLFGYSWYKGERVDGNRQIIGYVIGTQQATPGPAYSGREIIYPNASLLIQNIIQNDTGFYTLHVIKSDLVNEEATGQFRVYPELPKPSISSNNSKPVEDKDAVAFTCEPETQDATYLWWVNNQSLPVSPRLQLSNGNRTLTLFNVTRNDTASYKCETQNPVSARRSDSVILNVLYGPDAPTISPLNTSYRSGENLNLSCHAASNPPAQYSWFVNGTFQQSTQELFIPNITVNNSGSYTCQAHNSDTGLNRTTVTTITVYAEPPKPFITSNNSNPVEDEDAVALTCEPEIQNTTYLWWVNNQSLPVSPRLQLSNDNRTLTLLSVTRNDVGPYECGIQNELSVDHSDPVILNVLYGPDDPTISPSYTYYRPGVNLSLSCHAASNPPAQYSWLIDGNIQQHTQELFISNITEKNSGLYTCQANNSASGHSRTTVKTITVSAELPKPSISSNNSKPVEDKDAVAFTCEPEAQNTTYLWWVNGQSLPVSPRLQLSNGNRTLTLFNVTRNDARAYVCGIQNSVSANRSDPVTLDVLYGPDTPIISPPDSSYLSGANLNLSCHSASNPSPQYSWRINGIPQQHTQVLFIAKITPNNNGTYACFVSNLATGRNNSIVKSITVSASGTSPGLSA

[9] = biological target: T9, huCEACAM5-His6 (R&D Systems #4128-CM) (human, UniProt P06731 35-685); test: ELISA, protein coated at 12 nM; Fab, not IgG
T9 construct: Bought protein; also called human CEACAM5; not shown: His6 tag
T9 sequence: T8 sequence

binding result [1]: no binding (tested: 1000 nM)
binding result [2]: no binding (tested: 1000 nM)
binding result [3]: no binding (tested: 1000 nM)
binding result [4]: no binding (tested: 1000 nM)
binding result [5]: no binding (tested: 1000 nM)
binding result [6]: no binding (tested: 1000 nM)
Kd [8]: 6.3 nM
EC50 [9]: 3.04 nM
B1: Fab of mAb1 (Fab, V domains shown)
VH: EVQLQESGPGLVKPSQTLSLTCTVSDGSVSRGGYYLTWIRQHPGKGLEWIGYIYYSGSTYFNPSLRSRVTMSVDTSKNQFSLKLSSVTAADTAVYYCARGIAVAPFDYWGQGTLVTVSS
VL: EIVLTQSPATLSVSPGERATLSCRTSQSVRSNLAWYQQKPGQAPRLLIYAASTRATGIPARFSGSGSGTEFTLTISSLQSEDFAVYYCQQYTNWPFTFGPGTKVDIK
notes: Fab format of mAb1; also called Fab generated from mAb1
binding result [7]: no binding (tested: all concentrations tested)
